The DeepSol protein solubility set

experiment: soluble on expression in E. coli; label from the status in PepcDB or PDB records

Row | Sequence | soluble on expression in E. coli
1 | EAHQIRRSGNYQPALWDSNYIQSLNTPYTEERHLDRKAELIVQVRILLKEKMEPVQQLELIHDLKYLGLSDFFQDEIKEILGVIYNEHKCFHNNEVEKMDLYFTALGFRLLRQHGFNISQDVFNCFKNEKGIDFKASLAQDTKGMLQLYEASFLLRKGEDTLELAREFATKCLQKKLDEGGNEIDENLLLWIRHSLDLPLHWRIQSVEARWFIDAYARRPDMNPLIFELAKLNFNIIQATHQQELKDLSRWWSRLCFPEKLPFVRDRLVESFFWAVGMFEPHQHGYQRKMAATIIVLATVIDDIYDVYGTLDELELFTDTFKRWDTESITRLPYYMQLCYWGVHNYISDAAYDILKEHGFFCLQYLRKSVVDLVEAYFHEAKWYHSGYTPSLDEYLNIAKISVASPAIISPTYFTFANASHDTAVIDSLYQYHDILCLAGIILRLPDDLGTSYFELARGDVPKTIQCYMKETNASEEEAVEHVKFLIREAWKDMNTAIAAGYPFPDGMVAGAANIGRVAQFIYLHGDGFGVQHSKTYEHIAGLLFEPYA | soluble
2 | EAIKWDKAPCRFCGTGCGVLVGTQQGRVVACQGDPDAPVNRGLNCIKGYFLPKIMYGKDRLTQPLLRMKNGKYDKEGEFTPITWDQAFDVMEEKFKTALKEKGPESIGMFGSGQWTIWEGYAASKLFKAGFRSNNIDPNARHCMASAVVGFMRTFGMDEPMGCYDDIEQADAFVLWGANMAEMHPILWSRITNRRLSNQNVTVAVLSTYQHRSFELADNGIIFTPQSDLVILNYIANYIIQNNAINQDFFSKHVNLRKGATDIGYGLRPTHPLEKAAKNPGSDASEPMSFEDYKAFVAEYTLEKTAEMTGVPKDQLEQLAQLYADPNKKVISYWTMGFNQHTRGVWANNLVYNLHLLTGKISQPGCGPFSLTGQPSACGTAREVGTFAHRLPADMVVTNEKHRDICEKKWNIPSGTIPAKIGLHAVAQDRALKDGKLNVYWTMCTNNMQAGPNINEERMPGWRDPRNFIIVSDPYPTVSALAADLILPTAMWVEKEGAYGNAERRTQFWRQQVQAPGEAKSDLWQLVQFSRRFKTEEVWPEDLLAKKPELRGKTLYEVLYATPEVSKFPVSELAEDQLNDESRELGFYLQKGLFEEYAWFGRGHGHDLAPFDDYHKARGLRWPVVNGKETQWRYSEGNDPYVKAGEGYKFYGKPDGKAVIFALPFEPAAEAPDEEYDLWLSTGRVLEHWHTGSMTRRVPELHRAFPEAVLFIHPLDAKARDLRRGDKVKVVSRRGEVISIVETRGRNRPPQGLVYMPFFDAAQLVNKLTLDATDPLSKETDFKKCAVKLEKV | soluble
3 | EDNSRYTHFLTQHYDAKPQGRDDRYCESIMRRRGLTSPCKDINTFIHGNKRSIKAICSQKNVACKNGQTNCYISKSSFQVTTCKLHGGSPWPPCQYRATAGFRNVVVACENGLPVHLDQSIFR | soluble
4 | EEIFCHVYITEHSYVSVKAKVSSIAQEILKVVAEKIQYAEEDLALVAITFSGEKHELQPNDLVISKSLEASGRIYVYRKDLADTLNPFAEN | soluble
5 | EETDESNDMRPLFDTILKYTPAPSGSADETLQLQISQLDYDNYTGRLGIGRILNGRIKPGQTVAVMNHDQQIAQGRINQLLGFKGLERVPLEEAEAGD | not soluble
6 | EETIPLQTLRCYNDYTSHITCRWADTQDAQRLVNVTLIRRVNEDLLEPVSCDLSDDMPWSACPHPRCVPRRCVIPCQSFVVTDVDYFSFQPDRPLGTRLTVTLTQHVQPPEPRDLQISTDQDHFLLTWSVALGSPQSHWLSPGDLEFEVVYKRLQDSWEDAAILLSNTSQATLGPEHLMPSSTYVARVRTRLAPGSRLSGRPSKWSPEVCWDSQPGDEAQPQNLECFFDGAAVLSCSWEVRKEVASSVSFGLFYKPSPDAGEEECSPVLREGLGSLHTRHHCQIPVPDPATHGQYIVSVQPRRAEKHIKSSVNIQMAPPSLQVTKDGDSYSLRWETMKMRYEHIDHTFEIQYRKDTATWKDSKTETLQNAHSMALPALEPSTRYWARVRVRTSRTGYNGIWSEWSEARSWDTES | soluble
7 | EIGEPDVTDATLGSVYSEIISPVKDCILTVAKAVSFNPGGKDNTDAVEVLTELNTKVERAALNQPILTTKTER | soluble
8 | EISLNGYGRFGLQYVEDRGVGLEDTIISSRLRINIVGTTETDQGVTFGAKLRMQWDDGDAFAGTAGNAAQFWTSYNGVTVSVGNVDTAFDSVALTYDSEMGYEASSFGDAQSSFFAYNSKYDASGALDNYNGIAVTYSISGVNLYLSYVDPDQTVDSSLVTEEFGIAADWSNDMISLAAAYTTDAGGIVDNDIAFVGAAYKFNGGGGPKLAKMEKARGGGGDAGTVGLNWYDNGLSTAGDQVTLYGNYAFGATTVRAYVSDIDRAGADTAYGIGADYQFAEGVKVSGSVQSGFANETVADVGVRFDF | soluble
9 | EKAVLIGEKEADITFVTWGSQKGPILDVIEDLKEEGISANLLYLKMFSPFPTEFVKNVLSSANLVIDVESNYTAQAAQMIKLYTGIDIKNKILKYNGRHMTEDEILKSAKEILNKESLMVVLEDGS | not soluble
10 | EKKYFEIHGVPSIIWGNPSSKLYIYIHGQCGNKEEAEAFANIAVPHECQVLSVDLPEHGERKREKNSFNPWHVVPELVSIMEYAKCHWNQISLYANSIGAWFSMLSFEKENLRECIFVSPILDMQQLISNMMLWANVSEEQLKHELIIPTSFGHTLSWEYLQYVKQHPITQWNVPTKILYGKHDELTEIGVVEKFVEKFNCNLTIIENGKHWFNTPQELNSLYEWLNTLVK | not soluble
11 | EKQNEIQKKKARRHQLAMDYPEFISTFTLYLGAGMPARRAWFQIASVYRQQENTRYVYEEMVYTMREMQRGTPESECYEHFGMRCGLPVYRKFAVMLSQNLRKGTKGLAELLQREAAGAFEERKAAARKLGEETSTR | not soluble
12 | EKQSIHRTQLEALDSVITDLETSAQKGISLTEPEIFASLLETCYSLRAIDHGVRVHHLIPPYLLRNNLGISSKLVRLYASCGYAEVAHEVFDRMSKRDSSPFAWNSLISGYAELGQYEDAMALYFQMAEDGVKPDRFTFPRVLKACGGIGSVQIGEAIHRDLVKEGFGYDVYVLNALVVMYAKCGDIVKARNVFDMIPHKDYVSWNSMLTGYLHHGLLHEALDIFRLMVQNGIEPDKVAISSVLARVLSFKHGRQLHGWVIRRGMEWELSVANALIVLYSKRGQLGQACFIFDQMLERDTVSWNAIISAHSKNSNGLKYFEQMHRANAKPDGITFVSVLSLCANTGMVEDGERLFSLMSKEYGIDPKMEHYACMVNLYGRAGMMEEAYSMIVQEMGLEAGPTVWGALLYACYLHGNTDIGEVAAQRLFELEPDNEHNFELLIRIYSKAKRAEDVERVRQMMVDRGLET | soluble
13 | EKVDIDLRDQVSLQHGAQIFTNYCLSCHSASGMRFNRLKDIGLTDEEIKKNLMFTTDNVGDVMHSAMNPKDAAKWFGAAPPDLTLIARSKGADYLYAYMRGFYKDPTRPSGWNNTVFDKVGMPHPLWEQQGVQAVELDAKGQPVMVKDEHGEMKPKLYWESTGLHSRRLPNGKVIQKEYDAYVRDLVNYLVYMGEPAQLQRKR | not soluble
14 | ELHPRTGRLVSLSACGRTARRQQPGQEFNHGLVLSREPLRDGRVFTVRIDRKVNSWSGSIEIGVTALDPSVLDFPSSATGLKGGSWVVSGCSVLRDGRSVLEEYGQDLDQLGEGDRVGVERTVAGELRLWVNGRDCGVAATGLPPRVWAVVDLYGKCTQITVL | soluble
15 | ELPDFFQGKHFFLYGEFPGDERRKLIRYVTAFNGELEDYMSDRVQFVITAQEWDPSFEEALMDNPSLAFVRPRWIYSCNEKQKLLPHQLYGVVPQA | soluble
16 | ELRAKERKIIRDKEDGLNPQLADRMTLNELYDRFIEQKYDLKPSTKVNYLYMYNHFVRPTFGKRLIGKIKYSDVKKFYYRIILDEEMKANTLDSIHTQLHPAFQMAVRDGLLRQNPTDGLMAEIKKSHIWEDNPRHALTIPQQKAFMDYLKAHREYQGWVPIITVLLGTGMRIGECIGLRWDDLDFEKRIVSVNHTFIYRPDENRKSVKHISTPKTISGRRTIPMIDEVFNAFLDEYEIQKCIGFSSEEIDGYSNFVFVTATGTVYLPNAVNRAIERARVAYNKDEIEIAEKEDREPLIIPHF | not soluble
17 | EMIHHAKNQLIMCSPYFIPDESMLEAVTSACYRGVRVELLVSEQADQFVVDHAQSSYYQTLLEAGVHIYRYHAPAVLHSKFLIADPHGVAVSVMGSSNMDMRSFGLNYEVSLMTLQGQLTHLLYELAETYKENSTELTLEEWNQRGIVRRYVDNIMKLTSALQ | not soluble
18 | ENRDCYSLYRMNPADGKIQQLEVSEDLVNSFSLAQNAPVMVYYGQSASNSDRLYTMNTKKMKSSLLEDLSKDILKDVELGECKAWSFTNSRGDTIYGRYYLPPHFDANRKYPMIVNYYGGCSPVSRNFESRYPHHAYAALGYVVYVIEPSGATGFGQEFSARHVNTAGEGVAQDIIEGTKQFCKEHAFVNDKKIGCIGASYGGFMTQYLQTQTDIFAAAISHAGISDHTSYWGEGYWGYSYSEVSMANSYPWSNPDLFVKQSPLFNADKIHTPLLFLHGDADVNVPVGESIQMFTALKLLGRETAFVAVTGQDHHIVDYGKRIQWQNTIFAWFAKWLQ | not soluble
19 | ENYLSIEKRLYENLAQESSHSASRLQFLLEHAQANTQGLSDFIGLLADKDDINNPEKLKTVLTNRIQRNPDFFGSAIAFKPNTFPNKKLFSPYVYRSGSGFNYLDIGADGYDYTDGNWDWWSKAINQVGGYWSKAYFDEGAGNVLMITYAVPFGVQPDYFGVTTVDLALDRLPEQLGIAPSRLVVLDDQGRLIFHSDKEKVLAASSSGWLDKQNIKNIAFATLLNDGQAGQASFVDDKGTVYLASVAEVAKLKWRVVVMVPKHELFASLLDDIA | soluble
20 | EQKVYEQKTRQQVMLSAYQQKEKDIESILDMQKQNSKQRHDINNVLILISELIQDEKYSKALEVLDKYRTGYNNINVTEIVSNNIVLNYLLNRKINQCREAGIDMACYVLWNIAGVDDMDLYILLENLCDNAIEAAGQCEKPSIKLQIAEDNASMYIDIGNTTSGNVLNNNPHMNTTKKDKNMHGFGIMNIRDIIDKYNGTINYEQQGDNYLMCRCTLEKVCQ | not soluble
21 | EQMQSEFFYTDRKKIKWSLPSQPKVDIVELELLVARFIGEEKATKCFEKFHSMNQTKDNKKFNEAILFHAENTLARVLGSASAKLVTSLAISSRGMAFDQVAKLVEDNSTQQLEFSRTVLQSAIENVSEGISVIDSELKLVAWNKQYLDIFSYPEAFIYIGCPISQLIHFNLSQQGYFAKDIDLRVK | not soluble
22 | ERYGALAVPVGPGNLDIQTTFLVDLQSTVVCCTASMGLLLAEEVQRRNLRDKIAVRKVILGAERSSEAILAKIRECLGAESVHDITGLTEVYGPGTGLSCGVPGADGSI | not soluble
23 | ESIYIQSPYFIPDQAFLDSIKIAALGGVDVNIMVPNKRDHPFVYWATLKNVASLLEAGVNVYHYDNGFLHSKTLVIDDEVASVGTANMDNRSFTLNFEVNAFIYDEGVARSLKQAFINDMKLSNKLTSEEYAKR | not soluble
24 | ETRVRRTKTIVEITGLDARSGSLRINELYRWEPVHDNFKRAGDSYVLNEIMRARGWSPDKLFIEFKNREQILAYMTAKQIRDYVSVSLIVHMYATNPQLVMEAVGNDTLRDMVAHHS | not soluble
25 | ETTSCEFSVSPSGLAFCDKVVGYGPEAVKGQLIKAHYVGKLENGKVFDSSYNRGKPLTFRIGVGEVIKGWDQGILGSDGIPPMLTGGKRTLRIPPELAYGDRGAGCKGGSCLIPPASVLLFDIEYIGKA | soluble
26 | EVEGDKTVPNNVANAPFAGTEPLAKKLGLTEVNSLNTAVAATSSFVQFNAIASHSTFASPSGTLADVNHHAEMQKENADFLMDNALSDVSDTTVLK | not soluble
27 | EVKEEDAFYSKKCKLFYKKDNEFKEKGIGTLHLKPTANQKTQLLVRADTNLGNILLNVLIPPNMPCTRTGKNNVLIVCVPNPPIDEKNATMPVTMLIRVKTSEDADELHKILLEKKDA | soluble
